{"source": "patent US20080107649A1", "about": "“Immunogenic compositions of cyclic peptides derived from the beta-amyloid peptide” (Pevion Biotech Ltd., priority 2004, published 2008)", "origin": "cited, not measured here", "conditions": "human, in vivo", "data": [{"substance": "Aβ1-42: β-amyloid peptide of 42 amino acids (SEQ ID NO: 1), predominantly found in the plaques", "values": [{"measurement": "side effect of inoculation", "value": "severe side effect of cerebral inflammation in some patients"}]}]}
